Measured values taken from patent publication US20180155451A1 (published 2018).

T1: FcγRIIb extracellular domain with C-terminal His tag (human, UniProt P31994 43-217)
T1 construct: extracellular domain; expressed in FreeStyle293 cells; analyte in the Biacore assay; also called FcgRIIb; 2b; not shown: His tag at the C terminus
T1 sequence (looked up): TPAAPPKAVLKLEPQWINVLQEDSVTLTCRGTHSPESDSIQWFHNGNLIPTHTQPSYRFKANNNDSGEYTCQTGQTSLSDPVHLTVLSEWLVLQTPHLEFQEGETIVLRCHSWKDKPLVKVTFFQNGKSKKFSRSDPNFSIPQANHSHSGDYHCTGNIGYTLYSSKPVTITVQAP

B1: GpH7-A5/GpH7-B3 variant S337_19Q/GpL16-k0 (antibody, human IgG1, kappa)
heavy 1: not shown
heavy 2: not shown
light: DIVMTQSPLSLPVTPGEPASISCQASESLVHSNRNTYLHWYLQKPGQSPQLLIYKVSNRFSGVPDRFSGSGSGTDFTLKISRVEAEDVGVYYCSQNTHVPPTFGQGTKVEIERTVAAPSVFIFPPSDEQLKSGTASVVCLLNNFYPREAKVQWKVDNALQSGNSQESVTEQDSKDSTYSLSSTLTLSKADYEKHKVYACEVTHQGLSSPVTKSFNRGEC
notes: mutation in one H chain only; also called He Ab S337_19Q; S337Q
B2: GpH7-A5/GpH7-B3 variant S337_20W/GpL16-k0 (antibody, human IgG1, kappa)
heavy 1: not shown
heavy 2: not shown
light: B1 light
notes: mutation in one H chain only; also called He Ab S337_20W; S337W
B3: GpH7-A5/GpH7-B3 variant T335_04F/GpL16-k0 (antibody, human IgG1, kappa)
heavy 1: not shown
heavy 2: not shown
light: B1 light
notes: mutation in one H chain only; also called He Ab T335_04F; T335F
B4: GpH7-A5/GpH7-B3 variant T335_05P/GpL16-k0 (antibody, human IgG1, kappa)
heavy 1: not shown
heavy 2: not shown
light: B1 light
notes: mutation in one H chain only; also called He Ab T335_05P; T335P
B5: GpH7-A5/GpH7-B3 variant T335_06M/GpL16-k0 (antibody, human IgG1, kappa)
heavy 1: not shown
heavy 2: not shown
light: B1 light
notes: mutation in one H chain only; also called He Ab T335_06M; T335M
B6: GpH7-A5/GpH7-B3 variant T335_07I/GpL16-k0 (antibody, human IgG1, kappa)
heavy 1: not shown
heavy 2: not shown
light: B1 light
notes: mutation in one H chain only; also called He Ab T335_07I; T335I
B7: GpH7-A5/GpH7-B3 variant T335_08L/GpL16-k0 (antibody, human IgG1, kappa)
heavy 1: not shown
heavy 2: not shown
light: B1 light
notes: mutation in one H chain only; also called He Ab T335_08L; T335L
B8: GpH7-A5/GpH7-B3 variant T335_09D/GpL16-k0 (antibody, human IgG1, kappa)
heavy 1: not shown
heavy 2: not shown
light: B1 light
notes: mutation in one H chain only; also called He Ab T335_09D; T335D
B9: GpH7-A5/GpH7-B3 variant T335_10E/GpL16-k0 (antibody, human IgG1, kappa)
heavy 1: not shown
heavy 2: not shown
light: B1 light
notes: mutation in one H chain only; also called He Ab T335_10E; T335E
B10: GpH7-A5/GpH7-B3 variant T335_11K/GpL16-k0 (antibody, human IgG1, kappa)
heavy 1: not shown
heavy 2: not shown
light: B1 light
notes: mutation in one H chain only; also called He Ab T335_11K; T335K
B11: GpH7-A5/GpH7-B3 variant T335_12R/GpL16-k0 (antibody, human IgG1, kappa)
heavy 1: not shown
heavy 2: not shown
light: B1 light
notes: mutation in one H chain only; also called He Ab T335_12R; T335R
B12: GpH7-A5/GpH7-B3 variant T335_15Y/GpL16-k0 (antibody, human IgG1, kappa)
heavy 1: not shown
heavy 2: not shown
light: B1 light
notes: mutation in one H chain only; also called He Ab T335_15Y; T335Y
B13: GpH7-A5/GpH7-B3 variant V266_19Q/GpL16-k0 (antibody, human IgG1, kappa)
heavy 1: not shown
heavy 2: not shown
light: B1 light
notes: mutation in one H chain only; also called He Ab V266_19Q; V266Q
B14: GpH7-A5/GpH7-B3 variant Y300_12R/GpL16-k0 (antibody, human IgG1, kappa)
heavy 1: not shown
heavy 2: not shown
light: B1 light
notes: mutation in one H chain only; also called He Ab Y300_12R; Y300R
B15: GpH7-B3 variant K326_07I/GpL16-k0 (antibody, human IgG1, kappa)
heavy: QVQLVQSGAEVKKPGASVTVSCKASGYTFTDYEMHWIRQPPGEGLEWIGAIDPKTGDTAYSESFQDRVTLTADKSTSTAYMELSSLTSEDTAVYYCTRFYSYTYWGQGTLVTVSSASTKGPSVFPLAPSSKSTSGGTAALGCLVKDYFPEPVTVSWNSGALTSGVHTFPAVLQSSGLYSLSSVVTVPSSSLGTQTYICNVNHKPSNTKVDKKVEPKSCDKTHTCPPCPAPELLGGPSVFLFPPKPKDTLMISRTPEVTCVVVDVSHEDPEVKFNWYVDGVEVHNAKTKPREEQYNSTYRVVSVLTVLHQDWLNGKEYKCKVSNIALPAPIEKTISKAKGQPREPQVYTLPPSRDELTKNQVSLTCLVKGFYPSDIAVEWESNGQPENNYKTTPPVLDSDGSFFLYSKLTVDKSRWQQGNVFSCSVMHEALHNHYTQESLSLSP
light: B1 light
notes: homodimerized; mutation in both H chains; also called Ho Ab K326_07I
B16: GpH7-B3 variant A327_09D/GpL16-k0 (antibody, human IgG1, kappa)
heavy: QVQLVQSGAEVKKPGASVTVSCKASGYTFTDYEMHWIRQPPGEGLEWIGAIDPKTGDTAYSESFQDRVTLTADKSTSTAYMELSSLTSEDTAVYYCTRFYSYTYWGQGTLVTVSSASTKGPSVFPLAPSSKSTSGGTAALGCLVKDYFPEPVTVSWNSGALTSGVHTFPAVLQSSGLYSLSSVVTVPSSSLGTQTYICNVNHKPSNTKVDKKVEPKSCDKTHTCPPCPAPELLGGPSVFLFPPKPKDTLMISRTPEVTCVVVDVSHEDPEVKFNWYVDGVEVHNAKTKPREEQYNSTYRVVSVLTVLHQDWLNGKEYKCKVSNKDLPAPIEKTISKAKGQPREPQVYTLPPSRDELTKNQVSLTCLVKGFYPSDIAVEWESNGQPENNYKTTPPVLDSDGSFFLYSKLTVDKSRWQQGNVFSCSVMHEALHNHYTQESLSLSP
light: B1 light
notes: homodimerized; mutation in both H chains; also called Ho Ab A327_09D
B17: GpH7-B3 variant A327_10E/GpL16-k0 (antibody, human IgG1, kappa)
heavy: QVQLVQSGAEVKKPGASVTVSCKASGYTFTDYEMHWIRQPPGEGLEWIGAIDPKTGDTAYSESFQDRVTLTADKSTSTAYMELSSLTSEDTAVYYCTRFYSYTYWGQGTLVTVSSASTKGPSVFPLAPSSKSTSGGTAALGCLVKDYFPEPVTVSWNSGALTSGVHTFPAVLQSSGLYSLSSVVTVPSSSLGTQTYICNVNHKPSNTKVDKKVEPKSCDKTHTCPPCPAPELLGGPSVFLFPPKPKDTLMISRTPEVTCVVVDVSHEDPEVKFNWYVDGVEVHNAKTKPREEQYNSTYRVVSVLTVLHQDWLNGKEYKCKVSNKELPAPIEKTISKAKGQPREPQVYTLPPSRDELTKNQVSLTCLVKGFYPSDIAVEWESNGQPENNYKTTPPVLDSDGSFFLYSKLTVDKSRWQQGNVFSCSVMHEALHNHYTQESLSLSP
light: B1 light
notes: homodimerized; mutation in both H chains; also called Ho Ab A327_10E
B18: GpH7-B3 variant A330_01G/GpL16-k0 (antibody, human IgG1, kappa)
heavy: not shown
light: B1 light
notes: homodimerized; mutation in both H chains; also called Ho Ab A330_01G
B19: GpH7-B3 variant G236_09D/GpL16-k0 (antibody, human IgG1, kappa)
heavy: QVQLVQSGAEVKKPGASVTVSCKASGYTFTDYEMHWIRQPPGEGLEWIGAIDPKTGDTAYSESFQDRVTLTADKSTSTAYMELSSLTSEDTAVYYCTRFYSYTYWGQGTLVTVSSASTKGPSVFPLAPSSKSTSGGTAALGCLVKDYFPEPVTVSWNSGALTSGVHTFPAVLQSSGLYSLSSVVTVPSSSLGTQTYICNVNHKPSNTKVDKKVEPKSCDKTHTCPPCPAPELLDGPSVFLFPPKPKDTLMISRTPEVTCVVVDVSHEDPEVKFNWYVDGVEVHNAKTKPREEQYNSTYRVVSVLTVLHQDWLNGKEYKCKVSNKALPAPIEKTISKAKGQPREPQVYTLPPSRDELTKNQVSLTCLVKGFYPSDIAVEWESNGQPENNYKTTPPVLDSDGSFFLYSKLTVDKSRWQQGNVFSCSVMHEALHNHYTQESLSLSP
light: B1 light
notes: homodimerized; mutation in both H chains; also called Ho Ab G236_09D
B20: GpH7-B3 variant G236_10E/GpL16-k0 (antibody, human IgG1, kappa)
heavy: not shown
light: B1 light
notes: homodimerized; mutation in both H chains; also called Ho Ab G236_10E
B21: GpH7-B3 variant G237_04F/GpL16-k0 (antibody, human IgG1, kappa)
heavy: not shown
light: B1 light
notes: homodimerized; mutation in both H chains; also called Ho Ab G237_04F
B22: GpH7-B3 variant G237_20W/GpL16-k0 (antibody, human IgG1, kappa)
heavy: not shown
light: B1 light
notes: homodimerized; mutation in both H chains; also called Ho Ab G237_20W
B23: GpH7-B3 variant H268_01G/GpL16-k0 (antibody, human IgG1, kappa)
heavy: not shown
light: B1 light
notes: homodimerized; mutation in both H chains; also called Ho Ab H268_01G
B24: GpH7-B3 variant H268_09D/GpL16-k0 (antibody, human IgG1, kappa)
heavy: not shown
light: B1 light
notes: homodimerized; mutation in both H chains; also called Ho Ab H268_09D
B25: GpH7-B3 variant H268_10E/GpL16-k0 (antibody, human IgG1, kappa)
heavy: not shown
light: B1 light
notes: homodimerized; mutation in both H chains; also called Ho Ab H268_10E
B26: GpH7-B3 variant H268_13S/GpL16-k0 (antibody, human IgG1, kappa)
heavy: not shown
light: B1 light
notes: homodimerized; mutation in both H chains; also called Ho Ab H268_13S
B27: GpH7-B3 variant H268_18N/GpL16-k0 (antibody, human IgG1, kappa)
heavy: not shown
light: B1 light
notes: homodimerized; mutation in both H chains; also called Ho Ab H268_18N
B28: GpH7-B3 variant I332_04F/GpL16-k0 (antibody, human IgG1, kappa)
heavy: not shown
light: B1 light
notes: homodimerized; mutation in both H chains; also called Ho Ab I332_04F
B29: GpH7-B3 variant I332_06M/GpL16-k0 (antibody, human IgG1, kappa)
heavy: not shown
light: B1 light
notes: homodimerized; mutation in both H chains; also called Ho Ab I332_06M
B30: GpH7-B3 variant I332_09D/GpL16-k0 (antibody, human IgG1, kappa)
heavy: not shown
light: B1 light
notes: homodimerized; mutation in both H chains; also called Ho Ab I332_09D
B31: GpH7-B3 variant I332_10E/GpL16-k0 (antibody, human IgG1, kappa)
heavy: not shown
light: B1 light
notes: homodimerized; mutation in both H chains; also called Ho Ab I332_10E
B32: GpH7-B3 variant I332_14T/GpL16-k0 (antibody, human IgG1, kappa)
heavy: not shown
light: B1 light
notes: homodimerized; mutation in both H chains; label printed T332_14T, read as I332_14T; also called Ho Ab I332_14T
B33: GpH7-B3 variant I332_15Y/GpL16-k0 (antibody, human IgG1, kappa)
heavy: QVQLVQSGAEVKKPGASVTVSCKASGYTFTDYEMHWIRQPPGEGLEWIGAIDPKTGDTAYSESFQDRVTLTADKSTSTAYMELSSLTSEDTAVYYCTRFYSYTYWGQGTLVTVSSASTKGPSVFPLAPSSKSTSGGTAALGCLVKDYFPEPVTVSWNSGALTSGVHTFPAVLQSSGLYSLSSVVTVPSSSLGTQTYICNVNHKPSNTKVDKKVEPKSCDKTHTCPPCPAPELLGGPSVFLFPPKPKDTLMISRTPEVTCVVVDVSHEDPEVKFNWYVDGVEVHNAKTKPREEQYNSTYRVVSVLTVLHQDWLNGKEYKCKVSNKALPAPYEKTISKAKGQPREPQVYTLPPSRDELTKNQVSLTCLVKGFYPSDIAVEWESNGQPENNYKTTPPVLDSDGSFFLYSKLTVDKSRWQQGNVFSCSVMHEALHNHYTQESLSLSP
light: B1 light
notes: homodimerized; mutation in both H chains; also called Ho Ab I332_15Y
B34: GpH7-B3 variant I336_08L/GpL16-k0 (antibody, human IgG1, kappa)
heavy: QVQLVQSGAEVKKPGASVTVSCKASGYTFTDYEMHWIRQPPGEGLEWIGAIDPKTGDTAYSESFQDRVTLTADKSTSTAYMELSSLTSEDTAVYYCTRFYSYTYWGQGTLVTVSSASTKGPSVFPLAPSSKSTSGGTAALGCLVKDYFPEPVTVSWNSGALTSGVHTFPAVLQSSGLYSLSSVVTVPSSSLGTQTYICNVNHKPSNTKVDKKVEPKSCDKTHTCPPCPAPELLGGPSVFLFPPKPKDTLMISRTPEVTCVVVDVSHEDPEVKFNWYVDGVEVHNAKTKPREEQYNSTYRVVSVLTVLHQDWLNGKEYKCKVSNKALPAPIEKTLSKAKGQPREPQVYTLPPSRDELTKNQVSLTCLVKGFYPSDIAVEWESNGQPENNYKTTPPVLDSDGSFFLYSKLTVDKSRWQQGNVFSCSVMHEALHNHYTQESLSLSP
light: B1 light
notes: homodimerized; mutation in both H chains; also called Ho Ab I336_08L
B35: GpH7-B3 variant K326_03V/GpL16-k0 (antibody, human IgG1, kappa)
heavy: not shown
light: B1 light
notes: homodimerized; mutation in both H chains; also called Ho Ab K326_03V
B36: GpH7-B3 variant K326_04F/GpL16-k0 (antibody, human IgG1, kappa)
heavy: not shown
light: B1 light
notes: homodimerized; mutation in both H chains; also called Ho Ab K326_04F
B37: GpH7-B3 variant K326_06M/GpL16-k0 (antibody, human IgG1, kappa)
heavy: not shown
light: B1 light
notes: homodimerized; mutation in both H chains; also called Ho Ab K326_06M
B38: GpH7-B3 variant K326_08L/GpL16-k0 (antibody, human IgG1, kappa)
heavy: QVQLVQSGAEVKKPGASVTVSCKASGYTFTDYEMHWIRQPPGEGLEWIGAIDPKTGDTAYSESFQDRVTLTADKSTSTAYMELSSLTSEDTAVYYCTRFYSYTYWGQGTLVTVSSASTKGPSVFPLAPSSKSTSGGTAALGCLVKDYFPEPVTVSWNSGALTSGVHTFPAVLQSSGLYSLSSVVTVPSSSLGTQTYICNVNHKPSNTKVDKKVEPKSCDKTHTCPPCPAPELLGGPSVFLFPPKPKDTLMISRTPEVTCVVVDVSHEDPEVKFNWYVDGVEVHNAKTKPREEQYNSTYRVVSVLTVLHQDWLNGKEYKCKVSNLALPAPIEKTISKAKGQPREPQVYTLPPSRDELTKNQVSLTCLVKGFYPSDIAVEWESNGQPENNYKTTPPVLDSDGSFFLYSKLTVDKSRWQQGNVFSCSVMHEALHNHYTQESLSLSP
light: B1 light
notes: homodimerized; mutation in both H chains; also called Ho Ab K326_08L
B39: GpH7-B3 variant K326_09D/GpL16-k0 (antibody, human IgG1, kappa)
heavy: not shown
light: B1 light
notes: homodimerized; mutation in both H chains; also called Ho Ab K326_09D
B40: GpH7-B3 variant K326_10E/GpL16-k0 (antibody, human IgG1, kappa)
heavy: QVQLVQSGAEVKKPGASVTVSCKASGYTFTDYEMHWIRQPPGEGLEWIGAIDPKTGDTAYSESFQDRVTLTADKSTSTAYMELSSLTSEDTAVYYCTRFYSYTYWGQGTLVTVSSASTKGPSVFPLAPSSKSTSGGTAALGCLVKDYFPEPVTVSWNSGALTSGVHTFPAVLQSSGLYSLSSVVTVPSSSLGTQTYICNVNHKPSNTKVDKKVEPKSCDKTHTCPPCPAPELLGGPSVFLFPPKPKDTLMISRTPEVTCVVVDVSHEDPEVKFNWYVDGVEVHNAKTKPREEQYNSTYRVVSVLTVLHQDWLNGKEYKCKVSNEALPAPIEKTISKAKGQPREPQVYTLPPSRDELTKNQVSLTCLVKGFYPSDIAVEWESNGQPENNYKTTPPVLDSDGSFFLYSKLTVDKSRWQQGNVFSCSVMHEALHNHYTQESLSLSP
light: B1 light
notes: homodimerized; mutation in both H chains; also called Ho Ab K326_10E
B41: GpH7-B3 variant K326_14T/GpL16-k0 (antibody, human IgG1, kappa)
heavy: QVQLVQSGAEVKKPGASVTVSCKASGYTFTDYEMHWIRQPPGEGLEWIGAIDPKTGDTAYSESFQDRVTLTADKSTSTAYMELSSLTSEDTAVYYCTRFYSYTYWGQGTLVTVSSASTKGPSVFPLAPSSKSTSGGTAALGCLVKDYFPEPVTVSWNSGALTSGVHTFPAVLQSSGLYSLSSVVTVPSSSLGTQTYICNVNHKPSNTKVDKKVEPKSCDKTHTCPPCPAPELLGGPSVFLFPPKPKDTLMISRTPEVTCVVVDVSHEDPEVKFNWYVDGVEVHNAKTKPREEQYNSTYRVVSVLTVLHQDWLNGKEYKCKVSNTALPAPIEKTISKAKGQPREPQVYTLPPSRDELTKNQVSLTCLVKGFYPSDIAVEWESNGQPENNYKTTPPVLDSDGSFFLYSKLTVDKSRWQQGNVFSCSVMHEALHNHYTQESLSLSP
light: B1 light
notes: homodimerized; mutation in both H chains; also called Ho Ab K326_14T
B42: GpH7-B3 variant K326_15Y/GpL16-k0 (antibody, human IgG1, kappa)
heavy: not shown
light: B1 light
notes: homodimerized; mutation in both H chains; also called Ho Ab K326_15Y
B43: GpH7-B3 variant K326_16H/GpL16-k0 (antibody, human IgG1, kappa)
heavy: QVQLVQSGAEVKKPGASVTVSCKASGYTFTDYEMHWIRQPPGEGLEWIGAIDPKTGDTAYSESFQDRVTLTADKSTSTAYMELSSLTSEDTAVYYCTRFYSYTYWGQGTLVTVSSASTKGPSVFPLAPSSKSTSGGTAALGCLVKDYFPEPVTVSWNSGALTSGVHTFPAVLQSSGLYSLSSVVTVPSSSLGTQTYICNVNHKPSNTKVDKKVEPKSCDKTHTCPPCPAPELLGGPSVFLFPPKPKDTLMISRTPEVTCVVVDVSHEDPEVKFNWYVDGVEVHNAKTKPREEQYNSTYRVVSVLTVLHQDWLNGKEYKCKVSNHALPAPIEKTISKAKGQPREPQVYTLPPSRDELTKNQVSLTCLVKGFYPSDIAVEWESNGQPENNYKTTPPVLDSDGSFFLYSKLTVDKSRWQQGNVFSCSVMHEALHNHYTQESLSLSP
light: B1 light
notes: homodimerized; mutation in both H chains; also called Ho Ab K326_16H
B44: GpH7-B3 variant K326_19Q/GpL16-k0 (antibody, human IgG1, kappa)
heavy: not shown
light: B1 light
notes: homodimerized; mutation in both H chains; label printed K326_190, read as K326_19Q; also called Ho Ab K326_19Q

target: T2, FcγRIa extracellular domain with C-terminal His tag (human, UniProt P12314 16-292); assay: SPR Biacore, relative FcγRIa binding vs GpH7-A5/GpH7-B3/GpL16-k0
T2 construct: extracellular domain; also called FcgRI; CD64; not shown: His tag at the C terminus
T2 sequence (P12314 16-292): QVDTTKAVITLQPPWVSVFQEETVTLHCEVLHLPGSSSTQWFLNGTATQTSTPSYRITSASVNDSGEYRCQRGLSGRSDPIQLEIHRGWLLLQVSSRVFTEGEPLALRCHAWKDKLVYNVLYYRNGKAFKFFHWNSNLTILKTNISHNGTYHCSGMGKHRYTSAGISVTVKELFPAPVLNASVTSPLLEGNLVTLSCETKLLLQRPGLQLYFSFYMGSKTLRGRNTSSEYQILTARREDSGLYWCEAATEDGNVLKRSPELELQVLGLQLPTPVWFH

He/Con_1a | Binder
105 % of HeCon Ab (=100) | B1
105 % of HeCon Ab (=100) | B2
105 % of HeCon Ab (=100) | B3
106 % of HeCon Ab (=100) | B4
107 % of HeCon Ab (=100) | B5
109 % of HeCon Ab (=100) | B6
115 % of HeCon Ab (=100) | B7
108 % of HeCon Ab (=100) | B8
109 % of HeCon Ab (=100) | B9
111 % of HeCon Ab (=100) | B10
113 % of HeCon Ab (=100) | B11
107 % of HeCon Ab (=100) | B12
100 % of HeCon Ab (=100) | B13
105 % of HeCon Ab (=100) | B14

target: T1, FcγRIIb extracellular domain with …; assay: SPR (Biacore), captured antibody, FcγRIIb analyte; binding relative to GpH7-B3/GpL16-k0 = 100

Ho/Con_2b | Binder
170 % of control | B15
175 % of control | B16
148 % of control | B17
102 % of control | B18
207 % of control | B19
114 % of control | B20
140 % of control | B21
166 % of control | B22
158 % of control | B23
298 % of control | B24
275 % of control | B25
186 % of control | B26
179 % of control | B27
117 % of control | B28
106 % of control | B29
182 % of control | B30
181 % of control | B31
106 % of control | B32
109 % of control | B33
103 % of control | B34
184 % of control | B35
160 % of control | B36
193 % of control | B37
168 % of control | B38
240 % of control | B39
237 % of control | B40
177 % of control | B41
162 % of control | B42
131 % of control | B43
163 % of control | B44
